# T1: FcγRIIb extracellular domain with C-terminal His tag (human, UniProt P31994 43-217)
# T1 construct: extracellular domain; also called FcgRIIb; 2b; not shown: His tag at the C terminus
# T1 sequence (looked up): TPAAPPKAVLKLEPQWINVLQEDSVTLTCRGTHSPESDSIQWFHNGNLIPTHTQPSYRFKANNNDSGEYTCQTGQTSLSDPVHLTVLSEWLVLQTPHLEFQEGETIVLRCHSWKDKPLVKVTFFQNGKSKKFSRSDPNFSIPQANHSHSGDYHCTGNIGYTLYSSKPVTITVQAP
# What was measured:
# [1] = target: T2, FcγRIIIa extracellular domain with C-terminal His tag (human, UniProt P08637 17-208); assay: SPR (Biacore), FcγR as analyte over captured antibody; GpH7-A5/GpH7-B3/GpL16-k0 = 100
# T2 construct: extracellular domain; also called FcgRIIIa; 3a; not shown: His tag at the C terminus
# T2 sequence (P08637 17-208): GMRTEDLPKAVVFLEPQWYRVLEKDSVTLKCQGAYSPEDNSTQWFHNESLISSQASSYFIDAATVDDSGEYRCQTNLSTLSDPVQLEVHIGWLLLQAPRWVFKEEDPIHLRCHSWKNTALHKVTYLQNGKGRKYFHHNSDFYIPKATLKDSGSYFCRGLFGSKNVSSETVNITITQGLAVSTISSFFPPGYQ
# [2] = target: T1, FcγRIIb extracellular domain with …; assay: as above
# [3] = target: T2, FcγRIIIa extracellular domain with …; assay: SPR (Biacore); He/Con_3a divided by He/Con_2b (FcγRIIb)
Binder,He/Con_3a [1],He/Con_2b [2],He_3a/2b (IIIa/IIb) [3] [ratio]
"GpH7-A5/GpH7-B3 variant L328_05P/GpL16-k0 (antibody, human IgG1, kappa, Heterodimerized IgG1 antibody; alteration in the GpH7-B3 chain only; also called He Ab) heavy 1: not shown heavy 2: not shown light: DIVMTQSPLSLPVTPGEPASISCQASESLVHSNRNTYLHWYLQKPGQSPQLLIYKVSNRFSGVPDRFSGSGSGTDFTLKISRVEAEDVGVYYCSQNTHVPPTFGQGTKVEIERTVAAPSVFIFPPSDEQLKSGTASVVCLLNNFYPREAKVQWKVDNALQSGNSQESVTEQDSKDSTYSLSSTLTLSKADYEKHKVYACEVTHQGLSSPVTKSFNRGEC",40.5 % of control,65.1 % of control,0.62
"GpH7-A5/GpH7-B3 variant N325_05P/GpL16-k0 (antibody, human IgG1, kappa, Heterodimerized IgG1 antibody; alteration in the GpH7-B3 chain only; also called He Ab) heavy 1: not shown heavy 2: not shown light: DIVMTQSPLSLPVTPGEPASISCQASESLVHSNRNTYLHWYLQKPGQSPQLLIYKVSNRFSGVPDRFSGSGSGTDFTLKISRVEAEDVGVYYCSQNTHVPPTFGQGTKVEIERTVAAPSVFIFPPSDEQLKSGTASVVCLLNNFYPREAKVQWKVDNALQSGNSQESVTEQDSKDSTYSLSSTLTLSKADYEKHKVYACEVTHQGLSSPVTKSFNRGEC",10.2 % of control,26 % of control,0.39
"GpH7-A5/GpH7-B3 variant N325_03V/GpL16-k0 (antibody, human IgG1, kappa, Heterodimerized IgG1 antibody; alteration in the GpH7-B3 chain only; also called He Ab) heavy 1: not shown heavy 2: not shown light: DIVMTQSPLSLPVTPGEPASISCQASESLVHSNRNTYLHWYLQKPGQSPQLLIYKVSNRFSGVPDRFSGSGSGTDFTLKISRVEAEDVGVYYCSQNTHVPPTFGQGTKVEIERTVAAPSVFIFPPSDEQLKSGTASVVCLLNNFYPREAKVQWKVDNALQSGNSQESVTEQDSKDSTYSLSSTLTLSKADYEKHKVYACEVTHQGLSSPVTKSFNRGEC",30.3 % of control,111 % of control,0.27
"GpH7-A5/GpH7-B3 variant N325_02A/GpL16-k0 (antibody, human IgG1, kappa, Heterodimerized IgG1 antibody; alteration in the GpH7-B3 chain only; also called He Ab) heavy 1: not shown heavy 2: not shown light: DIVMTQSPLSLPVTPGEPASISCQASESLVHSNRNTYLHWYLQKPGQSPQLLIYKVSNRFSGVPDRFSGSGSGTDFTLKISRVEAEDVGVYYCSQNTHVPPTFGQGTKVEIERTVAAPSVFIFPPSDEQLKSGTASVVCLLNNFYPREAKVQWKVDNALQSGNSQESVTEQDSKDSTYSLSSTLTLSKADYEKHKVYACEVTHQGLSSPVTKSFNRGEC",30.5 % of control,64.4 % of control,0.47
"GpH7-A5/GpH7-B3 variant N325_04F/GpL16-k0 (antibody, human IgG1, kappa, Heterodimerized IgG1 antibody; alteration in the GpH7-B3 chain only; also called He Ab) heavy 1: not shown heavy 2: not shown light: DIVMTQSPLSLPVTPGEPASISCQASESLVHSNRNTYLHWYLQKPGQSPQLLIYKVSNRFSGVPDRFSGSGSGTDFTLKISRVEAEDVGVYYCSQNTHVPPTFGQGTKVEIERTVAAPSVFIFPPSDEQLKSGTASVVCLLNNFYPREAKVQWKVDNALQSGNSQESVTEQDSKDSTYSLSSTLTLSKADYEKHKVYACEVTHQGLSSPVTKSFNRGEC",20.7 % of control,143 % of control,0.14
"GpH7-A5/GpH7-B3 variant N325_07I/GpL16-k0 (antibody, human IgG1, kappa, Heterodimerized IgG1 antibody; alteration in the GpH7-B3 chain only; also called He Ab) heavy 1: not shown heavy 2: not shown light: DIVMTQSPLSLPVTPGEPASISCQASESLVHSNRNTYLHWYLQKPGQSPQLLIYKVSNRFSGVPDRFSGSGSGTDFTLKISRVEAEDVGVYYCSQNTHVPPTFGQGTKVEIERTVAAPSVFIFPPSDEQLKSGTASVVCLLNNFYPREAKVQWKVDNALQSGNSQESVTEQDSKDSTYSLSSTLTLSKADYEKHKVYACEVTHQGLSSPVTKSFNRGEC",28.7 % of control,171 % of control,0.17
"GpH7-A5/GpH7-B3 variant N325_06M/GpL16-k0 (antibody, human IgG1, kappa, Heterodimerized IgG1 antibody; alteration in the GpH7-B3 chain only; also called He Ab) heavy 1: not shown heavy 2: not shown light: DIVMTQSPLSLPVTPGEPASISCQASESLVHSNRNTYLHWYLQKPGQSPQLLIYKVSNRFSGVPDRFSGSGSGTDFTLKISRVEAEDVGVYYCSQNTHVPPTFGQGTKVEIERTVAAPSVFIFPPSDEQLKSGTASVVCLLNNFYPREAKVQWKVDNALQSGNSQESVTEQDSKDSTYSLSSTLTLSKADYEKHKVYACEVTHQGLSSPVTKSFNRGEC",31.4 % of control,217 % of control,0.14

# More lines, now with the values ahead:
He/Con_3a [1],He/Con_2b [2],He_3a/2b (IIIa/IIb) [3] [ratio],Binder
32.8 % of control,169 % of control,0.19,"GpH7-A5/GpH7-B3 variant N325_20W/GpL16-k0 (antibody, human IgG1, kappa, Heterodimerized IgG1 antibody; alteration in the GpH7-B3 chain only; also called He Ab) heavy 1: not shown heavy 2: not shown light: DIVMTQSPLSLPVTPGEPASISCQASESLVHSNRNTYLHWYLQKPGQSPQLLIYKVSNRFSGVPDRFSGSGSGTDFTLKISRVEAEDVGVYYCSQNTHVPPTFGQGTKVEIERTVAAPSVFIFPPSDEQLKSGTASVVCLLNNFYPREAKVQWKVDNALQSGNSQESVTEQDSKDSTYSLSSTLTLSKADYEKHKVYACEVTHQGLSSPVTKSFNRGEC"
48 % of control,124 % of control,0.39,"GpH7-A5/GpH7-B3 variant N325_09D/GpL16-k0 (antibody, human IgG1, kappa, Heterodimerized IgG1 antibody; alteration in the GpH7-B3 chain only; also called He Ab) heavy 1: not shown heavy 2: not shown light: DIVMTQSPLSLPVTPGEPASISCQASESLVHSNRNTYLHWYLQKPGQSPQLLIYKVSNRFSGVPDRFSGSGSGTDFTLKISRVEAEDVGVYYCSQNTHVPPTFGQGTKVEIERTVAAPSVFIFPPSDEQLKSGTASVVCLLNNFYPREAKVQWKVDNALQSGNSQESVTEQDSKDSTYSLSSTLTLSKADYEKHKVYACEVTHQGLSSPVTKSFNRGEC"
33.3 % of control,197 % of control,0.17,"GpH7-A5/GpH7-B3 variant N325_08L/GpL16-k0 (antibody, human IgG1, kappa, Heterodimerized IgG1 antibody; alteration in the GpH7-B3 chain only; also called He Ab) heavy 1: not shown heavy 2: not shown light: DIVMTQSPLSLPVTPGEPASISCQASESLVHSNRNTYLHWYLQKPGQSPQLLIYKVSNRFSGVPDRFSGSGSGTDFTLKISRVEAEDVGVYYCSQNTHVPPTFGQGTKVEIERTVAAPSVFIFPPSDEQLKSGTASVVCLLNNFYPREAKVQWKVDNALQSGNSQESVTEQDSKDSTYSLSSTLTLSKADYEKHKVYACEVTHQGLSSPVTKSFNRGEC"
56.4 % of control,95.4 % of control,0.59,"GpH7-A5/GpH7-B3 variant P271_14T/GpL16-k0 (antibody, human IgG1, kappa, Heterodimerized IgG1 antibody; alteration in the GpH7-B3 chain only; also called He Ab) heavy 1: not shown heavy 2: not shown light: DIVMTQSPLSLPVTPGEPASISCQASESLVHSNRNTYLHWYLQKPGQSPQLLIYKVSNRFSGVPDRFSGSGSGTDFTLKISRVEAEDVGVYYCSQNTHVPPTFGQGTKVEIERTVAAPSVFIFPPSDEQLKSGTASVVCLLNNFYPREAKVQWKVDNALQSGNSQESVTEQDSKDSTYSLSSTLTLSKADYEKHKVYACEVTHQGLSSPVTKSFNRGEC"
93.1 % of control,120 % of control,0.77,"GpH7-A5/GpH7-B3 variant P271_09D/GpL16-k0 (antibody, human IgG1, kappa, Heterodimerized IgG1 antibody; alteration in the GpH7-B3 chain only; also called He Ab) heavy 1: not shown heavy 2: not shown light: DIVMTQSPLSLPVTPGEPASISCQASESLVHSNRNTYLHWYLQKPGQSPQLLIYKVSNRFSGVPDRFSGSGSGTDFTLKISRVEAEDVGVYYCSQNTHVPPTFGQGTKVEIERTVAAPSVFIFPPSDEQLKSGTASVVCLLNNFYPREAKVQWKVDNALQSGNSQESVTEQDSKDSTYSLSSTLTLSKADYEKHKVYACEVTHQGLSSPVTKSFNRGEC"
65.1 % of control,177 % of control,0.37,"GpH7-A5/GpH7-B3 variant N325_13S/GpL16-k0 (antibody, human IgG1, kappa, Heterodimerized IgG1 antibody; alteration in the GpH7-B3 chain only; also called He Ab) heavy 1: not shown heavy 2: not shown light: DIVMTQSPLSLPVTPGEPASISCQASESLVHSNRNTYLHWYLQKPGQSPQLLIYKVSNRFSGVPDRFSGSGSGTDFTLKISRVEAEDVGVYYCSQNTHVPPTFGQGTKVEIERTVAAPSVFIFPPSDEQLKSGTASVVCLLNNFYPREAKVQWKVDNALQSGNSQESVTEQDSKDSTYSLSSTLTLSKADYEKHKVYACEVTHQGLSSPVTKSFNRGEC"
39.4 % of control,91.6 % of control,0.43,"GpH7-A5/GpH7-B3 variant N325_14T/GpL16-k0 (antibody, human IgG1, kappa, Heterodimerized IgG1 antibody; alteration in the GpH7-B3 chain only; also called He Ab) heavy 1: not shown heavy 2: not shown light: DIVMTQSPLSLPVTPGEPASISCQASESLVHSNRNTYLHWYLQKPGQSPQLLIYKVSNRFSGVPDRFSGSGSGTDFTLKISRVEAEDVGVYYCSQNTHVPPTFGQGTKVEIERTVAAPSVFIFPPSDEQLKSGTASVVCLLNNFYPREAKVQWKVDNALQSGNSQESVTEQDSKDSTYSLSSTLTLSKADYEKHKVYACEVTHQGLSSPVTKSFNRGEC"
38.2 % of control,95.9 % of control,0.4,"GpH7-A5/GpH7-B3 variant N325_10E/GpL16-k0 (antibody, human IgG1, kappa, Heterodimerized IgG1 antibody; alteration in the GpH7-B3 chain only; also called He Ab) heavy 1: not shown heavy 2: not shown light: DIVMTQSPLSLPVTPGEPASISCQASESLVHSNRNTYLHWYLQKPGQSPQLLIYKVSNRFSGVPDRFSGSGSGTDFTLKISRVEAEDVGVYYCSQNTHVPPTFGQGTKVEIERTVAAPSVFIFPPSDEQLKSGTASVVCLLNNFYPREAKVQWKVDNALQSGNSQESVTEQDSKDSTYSLSSTLTLSKADYEKHKVYACEVTHQGLSSPVTKSFNRGEC"
29.5 % of control,99.5 % of control,0.3,"GpH7-A5/GpH7-B3 variant N325_15Y/GpL16-k0 (antibody, human IgG1, kappa, Heterodimerized IgG1 antibody; alteration in the GpH7-B3 chain only; also called He Ab) heavy 1: not shown heavy 2: not shown light: DIVMTQSPLSLPVTPGEPASISCQASESLVHSNRNTYLHWYLQKPGQSPQLLIYKVSNRFSGVPDRFSGSGSGTDFTLKISRVEAEDVGVYYCSQNTHVPPTFGQGTKVEIERTVAAPSVFIFPPSDEQLKSGTASVVCLLNNFYPREAKVQWKVDNALQSGNSQESVTEQDSKDSTYSLSSTLTLSKADYEKHKVYACEVTHQGLSSPVTKSFNRGEC"
31.6 % of control,69.1 % of control,0.46,"GpH7-A5/GpH7-B3 variant N325_19Q/GpL16-k0 (antibody, human IgG1, kappa, Heterodimerized IgG1 antibody; alteration in the GpH7-B3 chain only; also called He Ab) heavy 1: not shown heavy 2: not shown light: DIVMTQSPLSLPVTPGEPASISCQASESLVHSNRNTYLHWYLQKPGQSPQLLIYKVSNRFSGVPDRFSGSGSGTDFTLKISRVEAEDVGVYYCSQNTHVPPTFGQGTKVEIERTVAAPSVFIFPPSDEQLKSGTASVVCLLNNFYPREAKVQWKVDNALQSGNSQESVTEQDSKDSTYSLSSTLTLSKADYEKHKVYACEVTHQGLSSPVTKSFNRGEC"
5.2 % of control,10.4 % of control,0.5,"GpH7-A5/GpH7-B3 variant N325_11K/GpL16-k0 (antibody, human IgG1, kappa, Heterodimerized IgG1 antibody; alteration in the GpH7-B3 chain only; also called He Ab) heavy 1: not shown heavy 2: not shown light: DIVMTQSPLSLPVTPGEPASISCQASESLVHSNRNTYLHWYLQKPGQSPQLLIYKVSNRFSGVPDRFSGSGSGTDFTLKISRVEAEDVGVYYCSQNTHVPPTFGQGTKVEIERTVAAPSVFIFPPSDEQLKSGTASVVCLLNNFYPREAKVQWKVDNALQSGNSQESVTEQDSKDSTYSLSSTLTLSKADYEKHKVYACEVTHQGLSSPVTKSFNRGEC"

# From patent publication US20150344570A1 (published 2015)
